Experimental findings from the supplement of paper PMC12042874 are described below.

± gives the uncertainty stated by the source.

This data set in a line: amyloid nucleation score (Sup35N fusion, yeast selection) (log enrichment); library NNK1; higher = more nucleation; inactive = no reads after selection. Summed up:
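Yeast lacking psi expressed peptides of 20 random codons fused to Sup35N, received 100 μM copper sulfate for 24 hours, and were then grown for 7 days at 30°C on medium lacking adenine and uracil. Illumina sequencing of input and output plasmid inserts provided the reads. Nucleation scores are DiMSum log enrichments of output over input, centred on the mode of non-aggregating sequences. Any sequence with under 100 input reads was excluded.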
With MFGGGWDAKWPPIPCLKKVD, the amyloid nucleation score turned out to be 0.308 ± 0.43. Next, MFRNI: 0.227 ± 0.26; MFSTKSH: 0.543 ± 0.49; MFSTLH: 0.178 ± 0.36. Next, MFWQHQLFVESRQNSSFTSF: -0.23 ± 0.63; MGCKAKRAFVEFLSRMEVRP: -0.035 ± 0.22.

With MGEYSRLSARSGWLDTPVDG, the amyloid nucleation score was -0.496 ± 0.67. MGFQFNTFCF displayed an amyloid nucleation score of 8.144 ± 0.062.

In the case of MGGRGGTDCRASMYSSACMG, the amyloid nucleation score is 1.74 ± 0.26.

Regarding MGGVMAVLFRIMLGVIF, the amyloid nucleation score result was “inactive”.

MGHAGTLCFANNCLNM returned an amyloid nucleation score of 7.483 ± 0.059. Turning to MGTLDI, the amyloid nucleation score result is “inactive”.

With MGVDYARSVW, the amyloid nucleation score is -0.202 ± 0.76. The substance MGVFRLNHSQTLRTGQSVEF gave an amyloid nucleation score of -1.18 ± 2.1.

MGVLKWLATRLDWFKKIMCR yielded an amyloid nucleation score of 2.3 ± 0.13. Next, MHFIRALIEFH: 1.88 ± 0.2. The value for MICKMNYQVRIPINFSYCLN was 2.43 ± 0.15. The substance MIIPD had an amyloid nucleation score of 1.14 ± 0.34. On to MILRVVCHLNVCS, for which the amyloid nucleation score was 6.921 ± 0.05.

The substance MIPKNFLGGNPLQRRESPIC registered an amyloid nucleation score of 0.828 ± 0.62. Next, MISGCLRVLMRAGVKHYVFM: 0.369 ± 0.93; MIVDNHWHECYSRAS: -1.76 ± 1.4; MIWAEQCVMWPGACVMVIK: 4.64 ± 0.09. The value for MIYVGVDISV was 2.24 ± 0.28; that for MKQQAQPVFVWSSAGGGCES was -0.606 ± 0.47; that for MKRASSLMINFMMPCNFYCG was 0.532 ± 0.62. Substance MLFDV had an amyloid nucleation score of -0.077 ± 0.21. The value for MLGKNSSCESNMEYVFRSCL was 0.244 ± 0.23; that for MLHWLKLIRTIGRFIRFFRC was “inactive”.

As to MLIKSIFIFSTLLYISMYD, the amyloid nucleation score came to 0.786 ± 0.29. The value for MLLEFCKCGVGSIVWCQKFA was 4.94 ± 0.11; that for MLLFSSVITVMFFGTSIHDG was -0.101 ± 1.2.

As to MLRTQQFSLLFEYHVHGEGG, the amyloid nucleation score came to 3.75 ± 0.075. Next, MLVDIGRC: -1.31 ± 1.6. In the case of MLVFYCNRN, the amyloid nucleation score was 2.88 ± 0.22.

The substance MMAIIFMCNV registered an amyloid nucleation score of 3.05 ± 0.18.

As for MMFSRILCNGDPQGSARWLS, the amyloid nucleation score result is “inactive”.

MMIWNSNSEQVRCIIGMPWL came in with an amyloid nucleation score of 4.79 ± 0.085.

MMLCSYKWVF gave an amyloid nucleation score of 0.1 ± 0.24. The substance MMSPR yielded an amyloid nucleation score of -0.921 ± 2.4.

Regarding MNEERVGNLIFCRDSFMSSW, the amyloid nucleation score is -0.096 ± 0.97.

In turn, MNKFNCRIMDDSDSALFSIA had an amyloid nucleation score of 0.486 ± 0.4. Next, MNMVCS: 1.15 ± 0.58; MNNCKGTI: -0.679 ± 0.79.

In the case of MPCFCYTCGRVMLVRIRQTR, the amyloid nucleation score entry was “inactive”. MPYLNGHYRH: the amyloid nucleation score result is “inactive”. As to MQMSLTDSGGVYVDGLVGYL, the amyloid nucleation score is -0.239 ± 0.31. The value for MRCGAL was 0.2 ± 1.2; that for MRCKCGLYAHSYSALLGNVE was “inactive”. Regarding MRFAVTD, the amyloid nucleation score is -0.146 ± 0.23. For MRFVIQVLYTGGTKKSSHLM, the amyloid nucleation score came out at 1.16 ± 0.79.

MRISFAITCTVTN gave an amyloid nucleation score of 0.248 ± 0.28.

In turn, MRITILYYLGKQNRSFWWFC yielded an amyloid nucleation score of 0.108 ± 0.35.

MRKTFDAVLNAFFCKALFCY came in with an amyloid nucleation score of 0.759 ± 0.39.

Consider MRSIH, for which the amyloid nucleation score is -0.11 ± 0.74.

On to MRSKREMSFMTHEILVCNDA, for which the amyloid nucleation score is 0.509 ± 0.31. MRVLDTNSGLMTITPFPVHS registered an amyloid nucleation score of -0.574 ± 0.67. Next, MRVVPHVWLTWHEATVVLQV: 0.807 ± 0.28; MSALTGQKPLVMVGGLCAVG: 0.449 ± 0.55.
